{"source": "the DeepSol protein solubility set", "data": [{"assay": "soluble on expression in E. coli; label from the status in PepcDB or PDB records", "values": [{"sequence": "MSSTLREASKDTLQAKDKTYHYYSLPLAAKSLGDIARLPKSLKVLLENLLRWQDGESVTDEDIQALAGWLKNAHADREIAWRPARVLMQDFTGVPAVVDLAAMREAVKRLGGDTSKVNPLSPVDLVIDHSVTVDHFGDDDAFEENVRLEMERNHERYMFLKWGKQAFSRFSVVPPGTGICHQVNLEYLGKAVWSELQDGEWIAYPDSLVGTDSHTTMINGLGVLGWGVGGIEAEAAMLGQPVSMLIPDVVGFKLTGKLREGITATDLVLTVTQMLRKHGVVGKFVEFYGDGLDSLPLADRATIANMSPEYGATCGFFPIDAITLEYMRLSGRSDDLVELVETYAKAQGMWRNPGDEPVFTSTLELDMGDVEASLAGPKRPQDRVALGDVPKAFAASAELELNTAQRDRQPVDYTMNGQPYQLPDGAVVIAAITSCTNTSNPSVLMAAGLLAKKAVTLGLKRQPWVKASLAPGSKVVSDYLAQAKLTPYLDELGFNLVGYGCTTCIGNSGPLPEPIETAIKKGDLTVGAVLSGNRNFEGRIHPLVKTNWLASPPLVVAYALAGNMNINLATDPLGYDRKGDPVYLKDIWPSAQEIARAVELVSSDMFRKEYAEVFEGTEEWKSIQVESSDTYGWQSDSTYIRLSPFFDEMQAQPAPVKDIHGARILAMLGDSVTTDHISPAGSIKPDSPAGRYLQNHGVERKDFNSYGSRRGNHEVMMRGTFANIRIRNEMLPGVEGGMTRHLPGTEAMSIYDAAMLYQQEKTPLAVIAGKEYGSGSSRDWAAKGPRLLGIRVVIAESFERIHRSNLIGMGILPLEFPQGVTRKTLGLTGEEVIDIADLQNLRPGATIPVTLTRSDGSKETVPCRCRIDTATELTYYQNDGILHYVIRNMLN", "soluble on expression in E. coli": "not soluble"}, {"sequence": "MSSTLRFHVLGRGAALPRAVAPYFVLRTDNWDDFGHRVQFHLILIVSGAPEKRIGSLKVLQRTSDKGEAMMVATDTELPSKFVELDDTFVSLGQDDDFYKKLHEALGDRAGEVLDALRDIAWRPAFASDFEPTPAFRNAMMRENGAQRARRFGRAWALGEQITERPAFDYVGTIEGADIKVEGEFDFSATDPVPGRIVGLIGRNAVGKTRYLASLGSDLAQISRRSAEALEAREARFPGGRPLFTRIIAISYSAFDRFKRPPMDSSSSYVYCGIRNDRGGLSRSALIDRYRLNQVRIRERGEQRSWMRHMKTILGDQGAQLTASLEEEIRSDSTDDSALSSLSSGQSILAHFVTALLAWIQPNSLVLFDEPETHLHPNAVASLFLVLSQVLQEFDSYAVIATHSPVVIQEIPAKRVLVFRREGNVTIAEPLLLESFGESVTELTRHVFETGEVESLYKRTLRELAAEDTVEDVLARFELGLSLSAQAYLLAQYSKKAGGRTLEHHHHHH", "soluble on expression in E. coli": "not soluble"}, {"sequence": "MSTCATVSRDLDEPLAGTAATARTWLLLEQPGPWGTKALTSSHLDQALGRALEAAAEGTGVRIALIRRPGRHADCGTPAVRQVYAAHTVPGNVWLHGAMTSDPEQLLDLDFTALGMGDPHTFDRLLGGRPHTGDPLALVCTNGKRDRCCALLGRPLAAELAASGVTGAWEVTHLGGHRFAPTLLILPFGYAYGRAEAPHIKEVLQGVREGRVVVEGCRGRSAWERPGQAAELAVRTAAHEYAADALTVVATDGTAPRWEVTVAHADGRLWRVIVAQGASLPPRPESCGSALGSPARMDVVAVRELIPTEIDATSR", "soluble on expression in E. coli": "not soluble"}, {"sequence": "MSTDEWRTERDPLVSQDRFLWEKVCCTIIPLHKKRYSSFAKEVVNVSKDAVKINNKKQYITQILPLSQANQQKLTEVKREKKAIAQTHKIHFFDRVVHRKIAKGHYSIEARLDLHGCMQEEAYFFLKKFLQSSQQNGLRYVLVITGKGRSPGSNGVLYQSVPHWLSTPAFRYYVHAFEQAARQHGGDGALYVRLRRFLPGKGYDVV", "soluble on expression in E. coli": "not soluble"}, {"sequence": "MSTEPLVVGAVAYTPNVVPIWEGIRGYFQDSESPDTQMDFVLYSNYARLVDSLIAGHIDIAWNTNLAYVRTVLQTGGRCTPLAQRDTDVDYTTVFVAHAGSDLHGAKDIAGKRLALGSADSAHAAILPLYYLRRAGIAESDLQVIRFDTDIGKHGDTGRSELDAVDAVLAGEADVAAIGSSTWAAMGAAELMGESLTEVWRTDGYCHCMFTALDTLPAERYQPWLDRLLAMSWDDSEHRKILELEGLRRWVPPHLDGYKPLFEAVQEQGIDPRW", "soluble on expression in E. coli": "not soluble"}, {"sequence": "MSTHNTHINETMQRNGRNNMAEHRGGSGNFAEDREKASDAGRKGGQHSGGNFKNDPQRASEAGKKGGQQSGGNKSGKS", "soluble on expression in E. coli": "not soluble"}, {"sequence": "MSTIIDVYAREVLDSRGNPTVEVEVYTESGAFGRAIVPSGASTGEHEAVELRDGDKSRYLGKGVMNAVNNVNEAIAPEIVGFDVTDQAGIDRAMIELDGTPNKGKLGANAILGVSMAVAHAAADFVGLPLYRYLGGFNAKQLPTPMMNIINGGSHADNNVDFQEFMILPVGAPTFKESIRMGAEVFHALKAVLHDKGLNTAVGDEGGFAPNLGSNREALEVIIEAIEKAGYKAGENVFLGMDVASSEFYNKETGKYDLAGEGRTGLTSAEMVDFYEELCKDFPIISIEDGLDENDWDGHKLLTERIGDKVQLVGDDLFVTNTQKLAEGIEKGISNSILIKVNQIGTLTETFEAIEMAKRAGYTAVVSHRSGETEDATIADIAVATNAGQIKTGSMSRTDRIAKYNQLLRIEDELGEIAVYDGIKSFYNIKR", "soluble on expression in E. coli": "soluble"}, {"sequence": "MSTLQRRRVNRADSGDTSSIHSSANNTKGDKIANIAVDGDDDNGTNKKIAYDPEESKLRDNINIPTLTLMEEVLLMGLRDREGYLSFWNDSISYALRGCIIIELALRGKIRILDDSARKRFDLSERLIEVIDSSKTGEVLLDETLQLMKNDEPLSISNWIDLLSGETWNLLKINYQLKQVRERLAKGLVDKGVLRTEMKNFFLFDMATHPIADASCKEAIKRRVLSVLVSRNMELSYNEYFPETTSFKIIRTLALICGSYGANVLENVLTTLEYEKRDKAISRAEEIMAQFSQYPFDLEKETELGVSVNLNKEVKEEIENNPGHDLQLEVIAGVFEVFSRMDMLL", "soluble on expression in E. coli": "soluble"}, {"sequence": "MSTMSTPAAEQRKLVEQLMGRDFSFRHNRYSHQKRDLGLHDPKICKSYLVGECPYDLFQGTKQSLGKCPQMHLTKHKIQYEREVKQGKTFPEFEREYLAILSRFVNECNGQISVALQNLKHTAEERMKIQQVTEELDVLDVRIGLMGQEIDSLIRADEVSMGMLQSVKLQELISKRKEVAKRVRNITENVGQSAQQKLQVCEVCGAYLSRLDTDRRLADHFLGKIHLGYVKMREDYDRLMKNNRTTNASKTATTLPGRRFV", "soluble on expression in E. coli": "not soluble"}, {"sequence": "MSTPDGDEKEQCFHRAIAKTSIYLDREPGNPELTVWLAINKASLAGAQGGFGALSLAKEAKSLLEGVIATSPQTLDGSAYTSLGSLYYKVPGWPIGFGDDDKAEEMLKKALEINPKGIDPNYFYGDFLAEEGRDKEAKVYLTRAMQASPRPLEHHHHHH", "soluble on expression in E. coli": "not soluble"}, {"sequence": "MSTRPTTDKVKEAIFNMIGPYFSGGNGLDLFAGSGGLGIEALSRGIERVIFVDHDRKAVQTVRKNVAACGLEKRAEIYCNDAERALKAVAKRGLRFAVIFLDPPYKEKQWPTLLSSIVERQLLEPHGVVVAEHSAEAELPEEVGGLTRWKRETYGITGVTIYRWEGDGSDGEHCGLPREL", "soluble on expression in E. coli": "not soluble"}, {"sequence": "MSTRYPTLTRSGFVLPERMKASYEGAADGRRSATWDAPDTGVNSLIMPALRNLRSRSRAAVRNDPYAANAIDRRVSNLIGTGITPQPRIADKELRRIFQETWEDWVDESDADQLTDFYGQQALIARTVEQSGECFVRLRPRRMDDGLAVPLQLQCLAPEFVPHDKFEVTSTGNIIRAGIEFNGFGKRVAYWCYRSHPSDMTSINAGYNMLVRIPASQMLHIFEPVEPGQLRGVPRLAPVLKRLRSLDNFDDAVLFRQEVANLFAGFIRKPSADGPPMLDPLTGAPIKIGGDGFTPMVALEPGTMQELLPGEEVEFSTPPDGGNNYPDFMRQQLMAAAAGAGLPYELMTGDMRGVNDRTIRVVLNEFRRRLEQLQFSVYVHQLCRPVRAAWMDMAVLSGALQLDDYAARRREYLRTRWVPQGWSYIHPVQDVQSRTMEINAGLASRSEMCLRTGTDAEIVDEENAADAARARGLGLNYSTLSAFDEDPDEKENP", "soluble on expression in E. coli": "not soluble"}, {"sequence": "MSTSSLRRQMKNIVHNYSEAEIKVREATSNDPWGPSSSLMSEIADLTYNVVAFSEIMSMIWKRLNDHGKNWRHVYKAMTLMEYLIKTGSERVSQQCKENMYAVQTLKDFQYVDRDGKDQGVNVREKAKQLVALLRDEDRLREERAHALKTKEKLAQTATASSAAVGSGPPPEAEQAWPQSSGEEELQLQLALAMSKEEADQEERIRRGDDLRLQMAIEESKRETGGKEESSLMDLADVFTAPAPAPTTDPWGGPAPMAAAVPTAAPTSDPWGGPPVPPAADPWGGPAPTPASGDPWRPAAPAGPSVDPWGGTPAPAAGEGPTPDPWGSSDGGVPVSGPSASDPWTPAPAFSDPWGGSPAKPSTNGTTAGGFDTEPDEFSDFDRLRTALPTSGSSAGELELLAGEVPARSPGAFDMSGVRGSLAEAVGSPPPAATPTPTPPTRKTPESFLGPNAALVDLDSLVSRPGPTPPGAKASNPFLPGGGPATGPSVTNPFQPAPPATLTLNQLRLSPVPPVPGAPPTYISPLGGGPGLPPMMPPGPPAPNTNPFLL", "soluble on expression in E. coli": "soluble"}, {"sequence": "MSTVSGLKRPQSSEKNHRDRVFVRATRGKVQKVVREQYLRNDIPCQSRACPLCRSKLPKDSRGNVLEPILSEKPMFLEKFGHHYLIPDSNIFYHCIDALEHPNNFFDVIILQTVFSEISSKSIPLYNRMKRLCQEKTKRFTPFSNEFFVDTFVERLDDESANDRNDRAIRNAASWFASHLASLGIKIVLLTDDRENARLAAEQGIQVSTLKDYVQYLPDSEILLDMVSAIADAIASKEQVESGTKNVYELHWSMSRLLACIKNGEVHKGLINISTYNYLEGSVVVPGYNKPVLVSGRENLNRAVQGDIVCIQILPQDQWKTEAEEIADDDEDVVVSTAAEPDSARINDLELITKRNAHPTAKVVGILKRNWRPYVGHVDNATIAQSKGGSQQTVLLTPMDRRVPKIRFRTRQAPRLVGRRIVVAIDLWDASSRYPEGHFVRDLGEMETKEAETEALLLEYDVQHRPFPKAVLDCLPEEGHNWKVPADKTHPLWKNRKDFRDKLICSIDPPGCQDIDDALHACVLPNGNYEVGVHIADVTHFVKPNTSMDSEAASRGTTVYLVDKRIDMLPMLLGTDLCSLRPYVERFAFSCIWEMDENANIIKVHFTKSVIASKEAFSYADAQARIDDQKMQDPLTQGMRVLLKLSKILKQKRMDEGALNLASPEVRIQTDNETSDPMDVEIKQLLETNSLVEEFMLLANISVAQKIYDAFPQTAVLRRHAAPPLTNFDSLQDILRVCKGMHLKCDTSKSLAKSLDECVDPKEPYFNTLLRILTTRCMLSAEYFCSGTFAPPDFRHYGLASPIYTHFTSPIRRYADVLAHRQLAAAIDYETINPSLSDKSRLIEICNGINYRHRMAQMAGRASIEYYVGQALKGGVAEEDAYVIKVFKNGFVVFIARFGLEGIVYTKSLSSVLEPNVEYVEDEYKLNIEIRDQPKPQTVQIQMFQQVRVRVTTVRDEHSGKQKVQITLVY", "soluble on expression in E. coli": "soluble"}, {"sequence": "MSVDLKRGETLPIHVNMTFPSLPCDVLSVDAIDMSGKHEVDLDTNIWKLRLNSHGHIIGTEYISDLVEKGHEHDGKEEHKNETETEALNILGFDQAAETMIKKVKQALADGEGCRVYGVLDVQRVAGNFHISVHGLNIYVAQMIFGGSKNVNVSHMIHDLSFGPKYPGIHNPLDDTNRILHDTSGTFKYYIKIVPTEYRYLSKDVLSTNQYSVTEYFTPMTEFDRTWPAVYFLYDLSPITVTIKEERRSFLHLITRLCAVLGGTFALTGMLDRWMFRFIESFNKKPSTRA", "soluble on expression in E. coli": "soluble"}]}]}
